Assay results as given in patent US20090092555A1 (published 2009).

Tests used:
[1] = molecular target: the molecule itself; experiment: Superose 12 gel filtration
Text: N-terminal Deletion—The Del-8 mutant lacks the first 8 N-terminal amino acids of PlyCB but retains full binding activity. Formation of a stable octamer is confirmed by comparing the elution profile of the Del-8 PlyCB mutant on a Superose 12 gel to Bio-Rad gel filtration standards. Accordingly, the N-terminal region can be completely deleted and not affect formation of the stable octamer. Given the non-structural role of this sequence, this region can be modified or engineered.

[2] = molecular target: T1, PlyCA (heavy chain of the streptococcal C1 bacteriophage lysin PlyC) (streptococcal C1 bacteriophage, UniProt Q7Y3F1 2-465); experiment: native PAGE against SDS/PAGE (two bands, PlyCA and PlyCB); N-terminal sequencing of the native band gives both chains
T1 construct: One PlyCA for eight PlyCB in the holoenzyme (about 114 kDa by gel filtration); also called PlyC heavy chain; plyCA gene product
T1 sequence (looked up): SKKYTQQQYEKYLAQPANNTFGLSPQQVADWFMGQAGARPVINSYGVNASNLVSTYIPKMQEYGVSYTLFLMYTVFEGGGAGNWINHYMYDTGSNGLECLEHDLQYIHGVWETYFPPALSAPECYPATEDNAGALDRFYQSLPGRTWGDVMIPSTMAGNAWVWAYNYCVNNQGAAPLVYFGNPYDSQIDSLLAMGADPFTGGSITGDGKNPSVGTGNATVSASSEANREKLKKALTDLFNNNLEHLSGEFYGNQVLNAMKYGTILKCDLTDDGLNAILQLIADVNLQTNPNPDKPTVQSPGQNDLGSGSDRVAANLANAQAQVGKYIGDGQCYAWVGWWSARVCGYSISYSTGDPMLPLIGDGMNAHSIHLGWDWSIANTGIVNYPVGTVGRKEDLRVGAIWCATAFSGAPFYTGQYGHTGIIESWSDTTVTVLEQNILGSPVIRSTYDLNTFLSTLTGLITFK
Text: PlyC Consists of a Heavy Chain (PlyCA) and a Light Chain (PlyCB)—PlyC purified from C₁ bacteriophage lysates behaves as a homogeneous protein on native-gel electrophoresis (FIG. 1A). Moreover, this protein band is responsible for the lytic activity, as observed by formation of a clearing zone on an overlay of streptococci-embedded agarose (FIG. 1B). […] N-terminal sequencing of the PlyC heavy and light chains results in two unique sequences ([…] and […], respectively), and sequencing of the native band results in a dual sequence, which corresponds exactly to both chains.
Expression and Purification of the PlyC Clone—PlyC is induced with 0.5% arabinose overnight from XL1-blue/pBAD24::plyC cultures. Cells are washed in 20 mM phosphate buffer at pH 7.0 and are lysed with 20% wt/vol chloroform to yield crude PlyC. Alternatively, group C streptococci are infected with the C1 bacteriophage as previously described (Nelson et al., 2001), and phage-produced PlyC are isolated from the crude lysate. Purification of the phage-derived enzyme and the recombinant enzyme are identical to previously described methods (Nelson et al., 2001). Purified enzymes are routinely stored in PBS at 4° C. and are stable for several months. Purification of the individually expressed heavy and light chains use the same column-chromatography methods as the native enzyme. […]

[3] = molecular target: the molecule itself; experiment: gel filtration, with and without 0.1% SDS

B1: Del-8 PlyCB mutant (8 amino acid N-terminal deletion of PlyCB), monomer (other)
chain: NVSGVQGFLFHTDGKESYGYRAFINGVEIGIKDIETVQGFQQIIPSINISKSDVEAIRKAMKK
notes: Monomer, used for the entry on self-assembly into the octamer; also called N-terminal deletion variant of PlyCB
binding result [1]: binds

B2: PlyCB octamer (wild-type) (other)
chain: SKINVNVENVSGVQGFLFHTDGKESYGYRAFINGVEIGIKDIETVQGFQQIIPSINISKSDVEAIRKAMKK
notes: Ring of eight identical PlyCB monomers, about 64 kDa; the partner of PlyCA in the PlyC holoenzyme; also called octameric protein
binding result [2]: binds

B3: PlyCB monomer (wild-type, light chain of the streptococcal C1 bacteriophage lysin PlyC) (other)
chain: SKINVNVENVSGVQGFLFHTDGKESYGYRAFINGVEIGIKDIETVQGFQQIIPSINISKSDVEAIRKAMKK
notes: also called PlyC light chain; plyCB gene product
binding result [3]: binds
